The text below walks through data of patent publication US20020155995A1 (published 2002).

This assay addresses T1, human CD163, ligand-affinity purified from Triton X-100 solubilised human spleen, placenta and liver membranes (human, UniProt Q86VB7 42-1156).
T1 construct: mature; Natural receptor purified from tissue membranes on Hp-Hb Sepharose; immobilised on BIAcore CM5 chips or in microtiter wells; also called HbSR; Hp-Hb receptor
The assay can be described thus: SPR, CD163 immobilised on CM5 chip.

T1 sequence (Q86VB7 42-1156): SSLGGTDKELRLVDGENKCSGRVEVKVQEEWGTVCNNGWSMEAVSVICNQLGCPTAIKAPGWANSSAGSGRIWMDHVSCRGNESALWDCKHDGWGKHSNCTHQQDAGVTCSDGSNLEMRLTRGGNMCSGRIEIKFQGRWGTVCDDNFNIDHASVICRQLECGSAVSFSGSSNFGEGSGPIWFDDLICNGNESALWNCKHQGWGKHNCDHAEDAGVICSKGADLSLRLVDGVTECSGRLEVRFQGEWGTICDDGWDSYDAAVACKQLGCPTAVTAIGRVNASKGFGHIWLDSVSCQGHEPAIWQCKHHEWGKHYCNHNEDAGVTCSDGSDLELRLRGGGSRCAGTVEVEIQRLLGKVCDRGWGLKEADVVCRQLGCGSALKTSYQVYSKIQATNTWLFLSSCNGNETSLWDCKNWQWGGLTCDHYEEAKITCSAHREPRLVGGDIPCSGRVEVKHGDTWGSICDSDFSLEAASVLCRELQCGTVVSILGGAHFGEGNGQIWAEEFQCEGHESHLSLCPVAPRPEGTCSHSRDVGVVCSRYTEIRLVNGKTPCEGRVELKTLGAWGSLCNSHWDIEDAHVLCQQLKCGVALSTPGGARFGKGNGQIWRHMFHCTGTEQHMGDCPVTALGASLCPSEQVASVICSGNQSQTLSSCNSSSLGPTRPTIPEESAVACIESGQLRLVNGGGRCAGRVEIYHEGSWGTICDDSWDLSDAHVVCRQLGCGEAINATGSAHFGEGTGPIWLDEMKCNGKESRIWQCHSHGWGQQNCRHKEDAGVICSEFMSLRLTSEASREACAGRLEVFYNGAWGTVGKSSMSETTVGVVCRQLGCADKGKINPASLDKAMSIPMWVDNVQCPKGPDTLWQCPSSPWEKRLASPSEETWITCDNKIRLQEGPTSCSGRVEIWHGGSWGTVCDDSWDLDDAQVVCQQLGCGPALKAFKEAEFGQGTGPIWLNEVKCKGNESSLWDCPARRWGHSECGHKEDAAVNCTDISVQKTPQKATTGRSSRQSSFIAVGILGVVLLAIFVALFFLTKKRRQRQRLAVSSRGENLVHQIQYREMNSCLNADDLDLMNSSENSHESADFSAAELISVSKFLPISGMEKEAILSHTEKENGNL
Description: Purified CD163 was immobilised at the BIAcore sensor CM5 chip (BIAcore AB) at a concentration of up to 50 μg/ml in 10 mM sodium acetate, pH 4.0, and the remaining binding sites were blocked with 1 M ethanolamine pH 8.5. The surface plasmon resonance signal generated from immobilised CD163 corresponded to 55-66 fmol receptor/mm². The sample and flow buffer was 10 mM Hepes, 150 mM NaCl, 0.5 mM CaCl₂, pH 7.4. The sensor chips were regenerated with 1.6 M glycine-HCl, pH 3.

B1: human haptoglobin Hp(2-2), non-complexed (other, UniProt P00738 19-406, looked up)
chain: VDSGNDVTDIADDGCPKPPEIAHGYVEHSVRYQCKNYYKLRTEGDGVYTLNDKKQWINKAVGDKLPECEADDGCPKPPEIAHGYVEHSVRYQCKNYYKLRTEGDGVYTLNNEKQWINKAVGDKLPECEAVCGKPKNPANPVQRILGGHLDAKGSFPWQAKMVSHHNLTTGATLINEQWLLTTAKNLFLNHSENATAKDIAPTLTLYVGKKQLVEIEKVVLHPNYSQVDIGLIKLKQKVSVNERVMPICLPSKDYAEVGRVGYVSGWGRNANFKFTDHLKYVMLPVADQDQCIRHYEGSTVPEKKTPKSPVGVQPILNEHTFCAGMSKYQEDTCYGDAGSAFAVHDLEEDTWYATGILSFDKSCAVAEYGVYVKVTSIQDWVQKTIAEN
notes: mature; From Sigma; mixture of multimers; also called Hp(2-2) multimers
Regarding B1, the binding result was “no binding (tested: 50 µg/ml Hp(2-2))”.
